In article PMC12529927, “Functional microRNA targeting without seed pairing”:

How the values were obtained:
[1] = target: T1, AGO2 (loaded with guide RNA) (Homo sapiens, UniProt Q9UKV8 1-859); assay: filter binding; range over four guides; 18 mM HEPES pH 7.4, 100 mM K-acetate, 1 mM Mg-acetate, 0.01% IGEPAL, 0.01 mg/mL yeast tRNA, 5 mM DTT, BSA, glycerol, 37 C, 4 h, 1-5 pM target; kinetics with 10; details: protein: recombinant, tags: 3xFLAG-SUMOEu1 (removed by SENPEuB cleavage)
[2] = target: T1, AGO2 (loaded with guide RNA); assay: filter binding; 18 mM HEPES pH 7.4, 100 mM K-acetate, 1 mM Mg-acetate, 0.01% IGEPAL, 0.01 mg/mL yeast tRNA, 5 mM DTT, BSA, glycerol, 37 C, 4 h, 1-5 pM target; kinetics with 10; details: protein: recombinant, tags: 3xFLAG-SUMOEu1 (removed by SENPEuB cleavage)
[3] = target: T1, AGO2 (loaded with guide RNA); assay: filter binding; upper bound, ~5 pM; 18 mM HEPES pH 7.4, 100 mM K-acetate, 1 mM Mg-acetate, 0.01% IGEPAL, 0.01 mg/mL yeast tRNA, 5 mM DTT, BSA, glycerol, 37 C, 4 h, 1-5 pM target; kinetics with 10; details: protein: recombinant, tags: 3xFLAG-SUMOEu1 (removed by SENPEuB cleavage), label: 32P target, offset +2
[4] = target: AGO2 D669A (loaded with guide RNA) (Homo sapiens, UniProt Q9UKV8 1-859, D669A); assay: hydroxyl radical footprinting; guide 3' region more accessible; 18 mM HEPES pH 7.4, 100 mM K-acetate, 1 mM Mg-acetate, 0.01% IGEPAL, 0.01 mg/mL yeast tRNA, 5 mM DTT, BSA, glycerol, 37 C, 4 h, 1-5 pM target; kinetics with 10; details: protein: recombinant, tags: 3xFLAG-SUMOEu1
AGO2 D669A (loaded with guide RNA), sequence (Q9UKV8 whole entry D669A): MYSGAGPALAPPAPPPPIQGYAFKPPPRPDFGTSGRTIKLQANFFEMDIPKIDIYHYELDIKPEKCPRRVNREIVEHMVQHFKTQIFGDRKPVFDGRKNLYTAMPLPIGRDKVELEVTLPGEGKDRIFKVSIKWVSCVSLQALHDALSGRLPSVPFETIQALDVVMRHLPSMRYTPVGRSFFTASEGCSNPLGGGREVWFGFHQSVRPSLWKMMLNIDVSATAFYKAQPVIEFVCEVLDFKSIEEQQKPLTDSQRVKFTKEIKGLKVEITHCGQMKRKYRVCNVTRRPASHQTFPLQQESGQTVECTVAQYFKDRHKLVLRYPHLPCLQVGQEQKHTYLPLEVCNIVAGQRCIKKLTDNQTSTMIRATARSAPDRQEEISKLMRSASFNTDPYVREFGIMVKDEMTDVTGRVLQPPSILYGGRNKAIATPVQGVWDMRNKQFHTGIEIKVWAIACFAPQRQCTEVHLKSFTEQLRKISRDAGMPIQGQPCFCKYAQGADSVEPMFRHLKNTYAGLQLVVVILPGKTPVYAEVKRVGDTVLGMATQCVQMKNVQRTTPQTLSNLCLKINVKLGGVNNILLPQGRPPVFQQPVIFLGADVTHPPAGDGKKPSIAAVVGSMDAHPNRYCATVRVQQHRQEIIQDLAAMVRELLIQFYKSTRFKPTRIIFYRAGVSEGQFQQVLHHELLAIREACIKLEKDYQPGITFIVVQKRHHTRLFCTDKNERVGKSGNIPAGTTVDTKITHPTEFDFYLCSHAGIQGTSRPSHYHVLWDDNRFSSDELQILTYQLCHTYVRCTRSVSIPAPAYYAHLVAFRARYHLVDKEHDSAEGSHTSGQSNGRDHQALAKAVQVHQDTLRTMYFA

[5] = target: T1, AGO2 (loaded with guide RNA); assay: filter binding; Kd printed only in figure; similar to m9_22; 18 mM HEPES pH 7.4, 100 mM K-acetate, 1 mM Mg-acetate, 0.01% IGEPAL, 0.01 mg/mL yeast tRNA, 5 mM DTT, BSA, glycerol, 37 C, 4 h, 1-5 pM target; kinetics with 10; details: protein: recombinant, tags: 3xFLAG-SUMOEu1 (removed by SENPEuB cleavage), label: 32P target, seed g2-8 paired
[6] = target: T1, AGO2 (loaded with guide RNA); assay: filter binding; Kd printed only in figure; similar to m11_23; 18 mM HEPES pH 7.4, 100 mM K-acetate, 1 mM Mg-acetate, 0.01% IGEPAL, 0.01 mg/mL yeast tRNA, 5 mM DTT, BSA, glycerol, 37 C, 4 h, 1-5 pM target; kinetics with 10; details: protein: recombinant, tags: 3xFLAG-SUMOEu1 (removed by SENPEuB cleavage), label: 32P target, seed g2-8 paired
[7] = target: T1, AGO2 (loaded with guide RNA); assay: filter binding; not above no-site control; 18 mM HEPES pH 7.4, 100 mM K-acetate, 1 mM Mg-acetate, 0.01% IGEPAL, 0.01 mg/mL yeast tRNA, 5 mM DTT, BSA, glycerol, 37 C, 4 h, 1-5 pM target; kinetics with 10; details: protein: recombinant, tags: 3xFLAG-SUMOEu1 (removed by SENPEuB cleavage), label: 32P target
[8] = target: T1, AGO2 (loaded with guide RNA); assay: filter binding; no boost over m11_23; 18 mM HEPES pH 7.4, 100 mM K-acetate, 1 mM Mg-acetate, 0.01% IGEPAL, 0.01 mg/mL yeast tRNA, 5 mM DTT, BSA, glycerol, 37 C, 4 h, 1-5 pM target; kinetics with 10; details: protein: recombinant, tags: 3xFLAG-SUMOEu1 (removed by SENPEuB cleavage), label: 32P target, offset +2
[9] = target: T1, AGO2 (loaded with guide RNA); assay: filter binding; modest boost over m11_23; 18 mM HEPES pH 7.4, 100 mM K-acetate, 1 mM Mg-acetate, 0.01% IGEPAL, 0.01 mg/mL yeast tRNA, 5 mM DTT, BSA, glycerol, 37 C, 4 h, 1-5 pM target; kinetics with 10; details: protein: recombinant; tags: 3xFLAG-SUMOEu1 (removed by SENPEuB cleavage); label: 32P target; g11-23 and g2-5 paired, offset +2
[10] = label: 32P target, g13-22 paired
[11] = label: 32P target, complementary to g9-19

T1 sequence (Q9UKV8 whole entry): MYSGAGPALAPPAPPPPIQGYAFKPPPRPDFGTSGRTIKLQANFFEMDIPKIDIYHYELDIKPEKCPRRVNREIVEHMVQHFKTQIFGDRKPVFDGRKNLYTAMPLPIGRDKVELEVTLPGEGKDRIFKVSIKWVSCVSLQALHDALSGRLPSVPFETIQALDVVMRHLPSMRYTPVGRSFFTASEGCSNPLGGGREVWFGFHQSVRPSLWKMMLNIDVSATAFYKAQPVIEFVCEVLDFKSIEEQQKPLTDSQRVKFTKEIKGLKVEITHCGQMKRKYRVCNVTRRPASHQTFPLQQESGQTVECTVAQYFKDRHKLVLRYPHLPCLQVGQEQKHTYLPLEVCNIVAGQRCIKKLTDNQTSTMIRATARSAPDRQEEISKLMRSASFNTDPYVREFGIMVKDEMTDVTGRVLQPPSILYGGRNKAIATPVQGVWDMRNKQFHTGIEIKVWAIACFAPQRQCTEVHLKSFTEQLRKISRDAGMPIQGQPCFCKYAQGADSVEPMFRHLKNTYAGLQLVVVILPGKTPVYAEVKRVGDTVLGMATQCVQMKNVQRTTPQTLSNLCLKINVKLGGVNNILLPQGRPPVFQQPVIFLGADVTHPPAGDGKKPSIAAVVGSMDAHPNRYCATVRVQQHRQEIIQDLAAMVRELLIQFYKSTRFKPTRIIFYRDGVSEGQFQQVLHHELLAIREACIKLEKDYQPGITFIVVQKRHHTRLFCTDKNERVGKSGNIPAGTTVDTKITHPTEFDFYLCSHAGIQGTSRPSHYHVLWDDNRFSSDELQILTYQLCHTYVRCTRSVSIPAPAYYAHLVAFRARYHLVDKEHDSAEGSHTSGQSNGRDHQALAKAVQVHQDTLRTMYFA

B1: miR-155 wt / m13_22 (mixed)
RNA 1: UUAAUGCUAAUCGUGAUAGGGGU
RNA 2: UUUUUUCCCCUAUCACUUUUUUUUUUUUUUUU
modifications: 5'-phosphate guide
For B1, the Kd [1, 10] was about 205 pM.

B2: miR-155 mut / m13_22 (mixed)
RNA 1: UUCGUGCUAAUCGUGAUAGGGGU
RNA 2: UUUUUUCCCCUAUCACUUUUUUUUUUUUUUUU
modifications: 5'-phosphate guide
For B2, the Kd [1, 10] was about 205 pM.

B3: let-7a / m11_22 (also labelled m10_22) (mixed)
RNA 1: UGAGGUAGUAGGUUGUAUAGUU
RNA 2: UUUUUAACUAUACAACCUUUUUUUUUUUUUUU
modifications: 5'-phosphate guide
Binder B3 has a Kd ([2]; g11-22 paired) of about 400 pM.

B4: miR-155 mut / m11_23|+2|m1_8 (mixed)
RNA 1: UUCGUGCUAAUCGUGAUAGGGGU
RNA 2: UUUUUUACCCCUAUCACGACCUUAGCACGAAUUUUUUUUU
modifications: 5'-phosphate guide
With B4 the Kd ([3]; g11-23 and g1-8 paired) was under 5 pM.

B5: miR-155 wt / m11_23|+2|m1_8 (mixed)
RNA 1: UUAAUGCUAAUCGUGAUAGGGGU
RNA 2: UUUUUUACCCCUAUCACGACCUUAGCAUUAAUUUUUUUUU
modifications: 5'-phosphate guide
B5: binds ([4]; label: 32P target (kon) or 32P guide (probing), g11-23 and g1-8 paired, offset +2).

B6: miR-124 mut / 7mer-m8 (mixed)
RNA 1: UCUGGCUCGCGGUGAAUGCCAA
RNA 2: UUUUUUUUUUUGAGCCAGUUUUUU
modifications: 5'-phosphate guide
B6: binds [5].

B7: miR-155 mut / 7mer-m8 (mixed)
RNA 1: UUCGUGCUAAUCGUGAUAGGGGU
RNA 2: UUUUUUUUUAAAGCACGAUUUUUU
modifications: 5'-phosphate guide
B7: binds [6].

B8: let-7a / 7mer-m8 (mixed)
RNA 1: UGAGGUAGUAGGUUGUAUAGUU
RNA 2: UUUUUUUUUUUUUUUUUUCUACCUCUUUUUUU
modifications: 5'-phosphate guide
B8 gave a Kd ([2]; label: 32P target, seed g2-8 paired) of under 5 pM.

B9: miR-124 wt / m11_18 (mixed)
RNA 1: UAAGGCACGCGGUGAAUGCCAA
RNA 2: UUUUUUUUCAUUCACCUUUUUUUUUUUU
modifications: 5'-phosphate guide
B9: no binding ([7]; g11-18 paired).

B10: miR-155 wt / 7mer-m8 (mixed)
RNA 1: UUAAUGCUAAUCGUGAUAGGGGU
RNA 2: UUUUUUUUUAAAGCAUUAUUUUUU
modifications: 5'-phosphate guide
B10: binds [6].

B11: miR-155 mut / m11_23|+2|m2 (mixed)
RNA 1: UUCGUGCUAAUCGUGAUAGGGGU
RNA 2: UUUUACCCCUAUCACGACCUUUUUUUUAUUUU
modifications: 5'-phosphate guide
B11: binds ([8]; g11-23 and g2 paired).

B12: miR-124 wt / 7mer-m8 (mixed)
RNA 1: UAAGGCACGCGGUGAAUGCCAA
RNA 2: UUUUUUUUUUUGUGCCUUUUUUUU
modifications: 5'-phosphate guide
B12: binds [5].

B13: miR-124 mut / m11_18 (mixed)
RNA 1: UCUGGCUCGCGGUGAAUGCCAA
RNA 2: UUUUUUUUCAUUCACCUUUUUUUUUUUU
modifications: 5'-phosphate guide
B13: no binding ([7]; g11-18 paired).

B14: miR-124 wt / m9_19 (mixed)
RNA 1: UAAGGCACGCGGUGAAUGCCAA
RNA 2: UUUUUUGCAUUCACCGCUUUUUUUUUUUUUUU
modifications: 5'-phosphate guide
B14 gave a Kd [1, 11] of about 205 pM.

B15: miR-124 mut / m9_19 (mixed)
RNA 1: UCUGGCUCGCGGUGAAUGCCAA
RNA 2: UUUUUUGCAUUCACCGCUUUUUUUUUUUUUUU
modifications: 5'-phosphate guide
B15 was tested, and the Kd [1, 11] was about 205 pM.

B16: miR-124 wt / m9_22 (mixed)
RNA 1: UAAGGCACGCGGUGAAUGCCAA
RNA 2: UUUUUUUUGGCAUUCACCGCUUUUUUUUUUUUUUUU
modifications: 5'-phosphate guide
For B16, the Kd ([1]; complementary to g9-22) was about 26.5 pM and the binding result ([4]; guide:target, complementary to g9-22) was “binds”.

B17: miR-124 mut / m9_22 (mixed)
RNA 1: UCUGGCUCGCGGUGAAUGCCAA
RNA 2: UUUUUUUUGGCAUUCACCGCUUUUUUUUUUUUUUUU
modifications: 5'-phosphate guide
B17 gave a Kd ([1]; label: 32P target, complementary to g9-22) of about 26.5 pM.

B18: miR-155 wt / m13_20 (mixed)
RNA 1: UUAAUGCUAAUCGUGAUAGGGGU
RNA 2: UUUUUUUCCUAUCACUUUUUUUUUUUUUU
modifications: 5'-phosphate guide
B18: no binding ([7]; g13-20 paired).

B19: miR-155 mut / m13_20 (mixed)
RNA 1: UUCGUGCUAAUCGUGAUAGGGGU
RNA 2: UUUUUUUCCUAUCACUUUUUUUUUUUUUU
modifications: 5'-phosphate guide
B19: no binding ([7]; g13-20 paired).

B20: miR-124 wt / m9_22|+3|m1_8 (mixed)
RNA 1: UAAGGCACGCGGUGAAUGCCAA
RNA 2: UUUUUUUUGGCAUUCACCGCUUUGUGCCUUAUUUUUUUUU
modifications: 5'-phosphate guide
B20: binds ([4]; label: 32P guide, g9-22 and g1-8 paired, offset +3).

B21: miR-155 mut / m11_23|+2|m2_5 (mixed)
RNA 1: UUCGUGCUAAUCGUGAUAGGGGU
RNA 2: UUUUUUACCCCUAUCACGACCUUUUUACGAUUUUUUUUUUUUUU
modifications: 5'-phosphate guide
B21: binds [9].

B22: miR-155 mut / m11_23 (mixed)
RNA 1: UUCGUGCUAAUCGUGAUAGGGGU
RNA 2: UUUUUUACCCCUAUCACGACCUUUUUUUUUUUUUUU
modifications: 5'-phosphate guide
In the case of B22, the Kd ([1]; label: 32P target, g11-23 paired) is reported as about 26.5 pM.

B23: miR-155 wt / m11_23 (mixed)
RNA 1: UUAAUGCUAAUCGUGAUAGGGGU
RNA 2: UUUUUUACCCCUAUCACGACCUUUUUUUUUUUUUUU
modifications: 5'-phosphate guide
With B23 the Kd ([1]; g11-23 paired) was about 26.5 pM and the binding result ([4]; guide:target, g11-23 paired) was “binds”.

B24: miR-155 mut / m11_23|+2|m2_7 (mixed)
RNA 1: UUCGUGCUAAUCGUGAUAGGGGU
RNA 2: UUUUACCCCUAUCACGACCUUUGCACGAUUUU
modifications: 5'-phosphate guide
B24 gave a Kd ([3]; g11-23 and g2-7 paired) of under 5 pM.

B25: miR-155 mut / m11_23|+2|m2_8 (mixed)
RNA 1: UUCGUGCUAAUCGUGAUAGGGGU
RNA 2: UUUUACCCCUAUCACGACCUUAGCACGAUUUU
modifications: 5'-phosphate guide
Binder B25 has a Kd ([3]; g11-23 and g2-8 paired) of under 5 pM.

B26: miR-155 mut / m11_23|+2|m2_3 (mixed)
RNA 1: UUCGUGCUAAUCGUGAUAGGGGU
RNA 2: UUUUACCCCUAUCACGACCUUUUUUUGAUUUU
modifications: 5'-phosphate guide
B26: binds ([8]; g11-23 and g2-3 paired).

B27: miR-155 mut / m11_23|+2|m2_4 (mixed)
RNA 1: UUCGUGCUAAUCGUGAUAGGGGU
RNA 2: UUUUACCCCUAUCACGACCUUUUUUCGAUUUU
modifications: 5'-phosphate guide
B27: binds ([8]; g11-23 and g2-4 paired).
